In patent publication US20250325640A1:

Molecular target: CD20 on Daudi cells (UniProt P11836)
Assay: cell-based or functional assay

## Rituximab (anti-CD20 IgG, Mabthera) (antibody)
  complement-dependent cytotoxicity (CCK8 cell survival, baby rabbit serum) (% of cells dead): 70
